Reference: article PMC2937035

Tests used:
Assay in all cases: protein microarray
Conditions in all cases: Protein microarray binding buffer, salt, pH and temperature not given in the material
[1] = tested on: Khd1 (Hek2) (Saccharomyces cerevisiae)
[2] = tested on: She2 (Saccharomyces cerevisiae)
[3] = tested on: Gcy1 (Saccharomyces cerevisiae)
[4] = tested on: Scp160 (Saccharomyces cerevisiae)
[5] = tested on: Rrp5 (Saccharomyces cerevisiae)
[6] = tested on: Mdh3 (Saccharomyces cerevisiae)
[7] = tested on: Npl3 (Saccharomyces cerevisiae)
[8] = tested on: Pcs60 (Saccharomyces cerevisiae)
[9] = tested on: Ydl124w (Saccharomyces cerevisiae)

Work on ASH1 mRNA yielded a binding signal (normalized mean signal (Cy3); Cy5 24.0) [1] of 3.4, a binding signal (normalized mean signal (Cy3); Cy5 17.8) [2] of 17.1 and a binding signal (normalized mean signal (Cy3); Cy5 19.6) [3] of 8.9. The binding signal (normalized mean signal (Cy3); Cy5 117.7) [4] was 2.9, the binding signal (normalized mean signal (Cy3); Cy5 14.6) [5] was 3.8 and the binding signal (normalized mean signal (Cy3); Cy5 60.2) [6] was 2.9. The binding signal (normalized mean signal (Cy3); Cy5 153.8) [7] was 7.1, the binding signal (normalized mean signal (Cy3); Cy5 89.8) [8] was 3.7 and the binding signal (normalized mean signal (Cy3); Cy5 14.6) [9] was 11.9.
